Results on 19 variants are retold here after the RNAGym collection of RNA variant scans (doi:10.1073/pnas.2313332121).

Variants at the floor of the assay were thinned out. Where only a bound is given, the exact number is not on record here.

To fix the notation:
B1: TPR 5TU (parent)
chain: GGAUCUUCUCGAUCUAACAAAAAAGACAAAUCUGCCACAAAGCUUGAGAGCAUCUUCGGAUGCAGAGGCGGCAGCCUUCGGUGGCGCGAUAGCGCCAACGUUCUCAACUAUGACACGCAAAACGCGUGCUCCGUUGAAUGGAGUUUAUCAUG

The variants in the series derive from B1. The series can be described thus: polymerase ribozyme fitness, log enrichment relative to wild type (log ratio); higher = more active; in vitro selection for triplet polymerase activity. In a few lines: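 Libraries of mutants in each subunit of a heterodimeric triplet polymerase ribozyme were generated by PCR and transcribed. In triplicate, each went through one in vitro selection round: annealing with biotinylated primer, partner subunit and triplets; frozen incubation at −7 °C; gel excision of extended constructs; streptavidin-bead capture; RT-PCR. Fitness, taken from Illumina sequencing of input and output libraries, is the logarithm of a genotype's enrichment over wild-type enrichment, averaged across replicates with inverse-variance weights. The logarithm is base 2, and genotypes needed ≥10 input reads and ≥1 read per output to be kept.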
GGAUCUUCUCGAUCGAACAAAAAAGACAAAUCUGCCACAAAGCUUGAGAGCAUCUUCGGAUGCAGAGGCGGCAGCCUUCGAUGGCGCGAUAGCGCCAACGUUCUCAACUAUGACACGACAAACGCGUGCUCCAUUGAUUGGAGUUUAUCAUG [U15G G81A C118A A119C G133A A138U]: the “polymerase ribozyme fitness (log ratio)” value was not above -4.2. As for GGAUCUUCUCGAUCGAACAAAAAAGACAAAUCUGCCACAAAGCUUGAGAGCAACUUCGGAUGCAGAGGCGGCAGCCUUCGGUGGCGCGAUAGCGACAACGUUCUCAACUAUGACACGCAAAACGCGUGCUCCGUUGAAUGGAGUUUAUCAUG [U15G U53A C95A], the figure is -1.48.

As to GGAUCUUCUCGAUCGAACAAAAAAGACAAAUCUGCCACAAAGCUUGAGAGCAUGUUCGGAUGCAGAGGCGGCAGCCUUCGAUGGCGCGAUAGCGUCAACGUUCUCAACUAUGACACGCAAAACGCGUGCUCCGUUGAAUGGAGUUUAUCAUG [U15G C54G G81A C95U], the “polymerase ribozyme fitness (log ratio)” value was -2.2. For GGAUCUUCUCGAUCGAACAAAAAAGACAAAACUGCCACAAAGCUUGAGAGCAUCAUCGGAUGCAGAGGCGGCAGCCUUCGGUGGCGCGAUAGGGCCAACGUUCUCAACUAUGACACGCAAAACGCGUGCUCCGUUGAAUGGAGUUUAUCAUG [U15G U31A U55A C93G], the “polymerase ribozyme fitness (log ratio)” value is -2.44.

As for GGAUCUUCUCGAUCGAACAAAAAAGACAAAUCUGCCAUAACGCUUGAGAGCUUCUUCGUAUGCACAGGCGGCAGCCUUCGGUGGCGCGAUAGCGCCAACGUUCUCAACUAUGACACGCAAAACGCGUGCUCCGUUGAAUGAAGUUUAUCAUG [U15G C38U A41C A52U G59U G65C G141A], the “polymerase ribozyme fitness (log ratio)” value is not above -4.2.

Regarding GGAUCUUCUCGAUCGAACAAAAAAGACAAAUCUGCCACAAAGCUUGAGAGCAUCUUCGGAUGCAGAGGCGGCAGCCUUCGGUGGAGCGAUAGCGCCAACGUUCUCAACUAUGACACGCAAAACGCGUGCUCCGUUGAAUGGAGUUUAUCAUG [U15G C85A], the “polymerase ribozyme fitness (log ratio)” value is -1.35. Under GGAUCUUCUCGAUCGAACAAAAAAGACAAAUCUGCCACAAAGCUUGAGAGCAUCUUCGGAUGCAGAGGCGGCAGCCUUCGGUUGCGCGAUAGCGCCAACGUUCUCAACUAUGACACGCAAAACGCGUGCUCCGUUGAAUGGAGUUUAUCAUG [U15G G83U] stands -0.494; under GGAUCUUCUCGAUCUCACAAUAAAGACAAAUCUGCCACAAAGCUUGAGAGCAUCUUCGGAUGCAGAGGCGGCAGCUUUCGGUGGCGCGAUAGCGCCAACGUUCUUAACUAUGACACGCAAAACGCGUGCUCCGUUGAAUGGAGUUUAUCAUG [A16C A21U C76U C105U], -1.77; under GGAUCUUCUCGAUCGAACAAAAAAGACAAAUCUGCCACAAAGCUUGAGAGCAUCUUAGGAUGCAGAGGCGGCAGCCUUCGGUGGCGCGAUAGCGCCAUCGUACUCAACUAUGACACGCAUAUCGCGUGCUCCGUUGAAUGGAGUUUAUCAUG [U15G C57A A98U U102A A120U A122U], -1.85. As for GGAUCUUCUCGAUCGAACAAAAAAGACAAAUCUGCCACAAAGCUUGAGAGCAUCUUCGGAUGCAGAGGCGGCAGCCUUCGGUGGCGCGAUAGCGCCAACGUUCUCAACUAUGACACGCAAAACGCGUGCUCCGUUGAAAGGAGUUUAUCAUG [U15G U139A], the figure is not above -4.2; as for GGAUCUUCUCGAUCGAACAAAAAAGACAAAUCUGCCACAAAGCUUGAGAGCAUCUUCGGAUGCAGAGGCGGCAGCCUUCGGUGGCGCGAUAGCGCCAACGUUCUCAACUAUGACACGCAAAACGCGUGCUCCGUGGAAUGGAGUUUAUCAUG [U15G U135G], -3.65. GGAUCUUCUCGAUCGAACAAAAAAGACAAAUCUGCCACAAAGCUUGGGAGCAUUUUCGGAUGCAGAGGCGGCAGCCUUCGGUGGCGCGAUAGGGCUAACGUUCCCAACUAUGACACGCAAAACGCGUGCUCCGUUGAAUGGAGUUUAUCGUG [U15G A47G C54U C93G C96U U104C A150G]: the “polymerase ribozyme fitness (log ratio)” value was -3.79. GGAUCUUCUCGAUCGAACAAAAAAGACAAAUCUGCCACAAAGCUUGAAAGCAUCUUCGGAUGCAGAGGCGGCAGCCUUCGGUGGCGCGAUAGCGCCAACGUUCUCAACUAUGACAUGCAAAACGCGUGCUCCGUUGAAUGGAGUUUAUCAUA [U15G G48A C116U G152A]: the “polymerase ribozyme fitness (log ratio)” value is -2.5. On to GGAUCUUCUCGAUCGAACAAAAAAGACAAAUCUGCCACAAAGCUUGAGAGCAUCUUCGGAUGCAGAGGCAGCAGCCUUCGGUGGCGUGACAGUGCCAACGUUCUCAACUAUGACACGCAAAACGCGUGCUCCGUUGAAUGGAGUUUAUCAUG [U15G G70A C87U U90C C93U], for which the “polymerase ribozyme fitness (log ratio)” value is not above -4.2. As for GGAUCUUCUCGAUCGAACAAAAAAGACAAAUCUGCCACAACGCUUGAGAGCAUCUUCGGAUGCAGAGGCGGCAGCCUUCGGUGGCGCGAUAGUGCCAACGUUCUCAACUAUGACACGCAAAACGCGUGCUCCGUUGAAUGGAGUUUAUCAUG [U15G A41C C93U], the figure is -1.93; as for GGAUCUUCUCGAUCGAACAAAAAAGACAAAUCUGCCACAAAGCUUGAGAUCAUCUUCGGAUGCAGAGGCGGCAGCCUUCGGUGGCGCGAUAGAGCCAACGUUCUCAACUAUGACACGCAAAACGCGUGCUCCGUUGAAUGGAAUUUAUCAUG [U15G G50U C93A G143A], -3.35. Under GGAUCUUCUCGAUCGAACAAAAAAGACAAAUCUGCCACUAAGCUUGAGACCAUCUUCGGAUGCAGAGGCCGCAGCCUUCGGUGGCGCUAUAGCGCCAACGUUCUUAACUAUGACACGCAAAACGCGUGCUCCGUUGAAUGGAGUUUAUCAUG [U15G A39U G50C G70C G88U C105U] stands not above -4.2; under GGAUCUUCUCGAUCGAACAAAAAAGACAAAUCUGCCACAAAGCUUGAGAGCAUCUUCGCAUGCAGAGGCGGCGGCCUUCGGUGGAGCGAUAGCGCCAACGUUCUCAACUAUGACACGCAAAACGCGUGCUCCGUUGAAUGGAGUUUAUCAUG [U15G G59C A73G C85A], -2.7. As for GGAUCUUCUCGAUCGAACAAAAAAGACAAAUCUGCCACAAAGCUUGAGAGCAUCUUCGGAUGCAGAGGCGGCAGCCUUCGGUGGCGCGAUAGCGCCAACGUUCUCAACUAUGACACGCAAAACGCGUGCUCCGUUGAAUGGAGUUUAACAUG [U15G U148A], the figure is -2.78.
